# B1: Daratumumab (antibody, human IgG1, kappa, V domains shown)
# VH: EVQLLESGGGLVQPGGSLRLSCAVSGFTFNSFAMSWVRQAPGKGLEWVSAISGSGGGTYYADSVKGRFTISRDNSKNTLYLQMNSLRAEDTAVYFCAKDKILWFGEPVFDYWGQGTLVTVSS
# VL: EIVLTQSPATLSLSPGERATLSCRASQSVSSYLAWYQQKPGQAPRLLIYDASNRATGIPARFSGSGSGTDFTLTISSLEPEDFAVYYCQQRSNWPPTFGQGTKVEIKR
# Assays:
# [1] = target: T1, Human CD38 on cells (human, UniProt P28907 1-300); experiment: cell-based or functional assay
# [2] = target: T1, Human CD38 on cells; experiment: cell-based or functional assay; remark: listed apart in the source
binder,measurement,setting,value
B1,"CDC, 10% complement, target Daudi cells: EC50 ug/ml DARA (experiment 10)",[1],0.11 µg/mL
same,"CDC, 10% complement, target Daudi cells: EC50 ug/ml DARA (experiment 11)",[1],0.07 µg/mL
same,"ADCC, target Daudi cells: EC50 ug/ml DARA",[2],0.0139 µg/mL

# From patent publication US20200362049A1 (BLACK BELT THERAPEUTICS, published 2020)
